# The DeepSol protein solubility set
# Assay: soluble on expression in E. coli; label from the status in PepcDB or PDB records
row,Sequence,soluble on expression in E. coli
1,MQVIIISGLSGSGKSIALKVLEDSGYYCVDNLPASLLVVLINHLQTQQHAYVAVAIDMRSGENITVLPWQLKMIDKSIQIKFIFLEARTETLMQRFSETRRRHPLSDKNITLEEAIRREREALATLTGLGHHIDTSSLRPNVLRAFIKDFIADSRSPSQLTLLFQSFGYKHGIPLDADLVFDIRCLPNPFYDPQLKELTGHDPEVIRFMESQPDASKMLRDISSFLGTWLPAYIRDNRAYLTVAIGCTGGQHRSVYFAEKLALHFHDSAHVLVRHRGLAEYKPHYARR,not soluble
2,MQVLSMIFTREILEEAINYGLTKNTTSFTRIKAGIYKTEREKHRDLPSHYIYTACEDASERLDSFNKLKKRGRSYTDRPSVRRVTVHLDDHLWKFSLNVISIATKRGRVCISPIFPKIFWRYYNDNWLIASGARFKLLKGNVVEFFIVFKKDVKSYDPRGFIPVDLNEDSVSVLINGKPILLETNTRMITLGYEYKRRSITNGRSTKDREVRRKLRERDKKLDVRRKFAKLIVKEAFGSRSAIVLEDLPRGVPEHMVKGVKDKQLRLRIYRSAFSSMKNAIVEKAREFGVPVILVDPSYTSSICPVHGSKIIYQPDGGSAPRVGVCGKGGERWHRDVVALYNLRKRAGDVSPVPLGSKESHDPPVVQVVEGLEHHHHHH,soluble
3,MQVPLNSADIDYAQFKDANGQEVLVIADGGKLKAFDGTKVYEIVPAPNESGYPANDLANINNKGLKGCVVHNTRVVIWDGSDTIWHSKIGYYDYFGQTDYQRFVRENDYVQTCVTFAGALLVFMRRHIGVLFGHDVEDWSQGFLDTQNGCINPKTVQTVTHPDGRQEVFYLSDNGVHAVYTIDTIEMDVSNRYSTRSVTEGLIDWKALGVTKDEWKRATAYFYDGRYWLIYPKGSEWRGLVYDTRLQAWFPINNVKANSFYHDEDYFYFAGDDGHLKVFDDTLYSDWNDKNKTSGTPINFYWYSKLLTPKLTGYDHFWDVLMIEAKQFPQKSALDVEVNTYLGRFTQEKAVKTASLVWGVTEWGEAQWQNPFLTEAVNNAKRLPTFLKGQYAQIKLSNNRDEPVEIYSLKYEVRLME,not soluble
4,MQVQAPRRTPKIQQVVEFVESLDDNHRLKGKEDGETYLIEPNAISRIYIENRQVLAETTQGDYHLGLRLYQVLEILPAYFIKISQSEIVNLKEIERFNITPNRLVEIHLKTRKLATHHAVTSKQ,not soluble
5,MQYHRIPHSSLEVSTLGLGTMTFGEQNSEADAHAQLDYAVAQGINLIDVAEMYPVPPRPETQGLTETYVGNWLAKHGSREKLIIASKVSGPSRNNDKGIRPDQALDRKNIREALHDSLKRLQTDYLDLYQVHWPQRPTNCFGKLGYSWTDSAPAVSLLDTLDALAEYQRAGKIRYIGVSNETAFGVMRYLHLADKHDLPRIVTIQNPYSLLNRSFEVGLAEVSQYEGVELLAYSCLGFGTLTGKYLNGAKPAGARNTLFSRFTRYSGEQTQKAVAAYVDIARRHGLDPAQMALAFVRRQPFVASTLLGATTMDQLKTNIESLHLELSEDVLAEIEAVHQVYTYPAP,soluble
6,MQYRRQPCSGVVKFNDAITLIDAGLHDLADRWSPGSFQQFLLTHYHMDHVQGLFPLRWGVGDPIPVYGPPDEQGCDDLFKHPGLLDFSHTVEPFVVFDLQGLQVTPLPLNHSKLTFGYLLETAHSRVAWLSDTAGLPEKTLKFLRNNQPQVMVMDCSHPPRADAPRNHCDLNTVLALNQVIRSPRVILTHISHQFDAWLMENALPSGFEVGFDGMEIGVALEHHHHHH,not soluble
7,MRAEDLFNDPKSYKRWYELHSKLYENERNVVRSFNLKDCLDVGSGPDIFHEEIGGRIVALDISLLMLKESKSDEKVLADALHLPFRDNSFKCVFSSVTVCFIEDVKGFIREMARITKERAIICFIARDSPWGEYYENLGKSGHKYYSHARFISRREFYVIINDFMKISRIRSTLKKMSETEIDGVYNDDSGSFICVEAIPMKPEPLSLSLNRHSGADPADPIS,not soluble
8,MRAELQAETEAERLERQAKLHELLHRLRGEPNVLLPFHQALALRPRGERHLGLRTIEVDKVVGSVDRYEDFDHRFLPKTPHTLERWKRLRALQLAGAEFPPIEVYQVGEAYFVKDGNHRVALAKATGQKFIDAHVIALDVPVPIEPGDTPKDLLLKAEYAHFLEKTRLKDLVPGAEEIRFTALGRYDRLLDHIATRRYFKGLEEGREISWEEAVVDWYENLYKPTVEAIRRLGLLRDFPGRTEADLYLWVMDHRYFLARELGVDPGPEGAAKSYEAHFGGVWKRLGGGLKRLLTGR,soluble
9,MRAFKAHLRGLSPYPYKKEEAPVKLDQNESPFDLPGALKEEALGRLRAIPWNRYPEIHAESLRKRLSALLDWPEEGIVLAPGSNLLILALSLAAEEVLDLRPSFPHYAHAAKVAGTPYRAVPLGEGFSLDLKALLAAFRGGVLFLPNPHAPTGALFPEEALRALAERAKEVGGLLVVDEAYREFAGTDFRFLARENPHVALLRTFSKAFSLGGVRAGYLLGSPEVAGVVREVLPPFVLPAHTGAVLEVVLENPGYVEKVVEEVVAQRERVYRELLAHPTWRPYPSRTNFLLVRTPDAEEAFRHLLSQGVLVRRQDRYPGLAGCLRVTVGRREEMDAFLRAAFGVAYA,soluble
10,MRAFSFRPFFLQALVVMPEYVNWLRHASPYINAHRDCTFVVMLPGDGVAHPNFGNIVHDLVLLHSLGVRLVLVHGSRPQIESRLAQRGITPRYHRDMRITDTETLECVIDAVGQLRISIEARLSMDMAASPMQGSRLRVTSGNVVTARPIGVLEGIDYQHTGEVRRVDRKGINRLLDERHIVLLSPLGYSPTGEIFNLACEDVATRAAIDLAADKLLLFGAETGLLDEQGRLVRELRPQQVPAHLQRLGGNYQAELLDAAAEACRGGVARSHIVSYAEDGALLTELFTRDGGGTLVAQEQFELVREAAIEDVGGLMDLITPLEEQGILVRRSREVLEREITQFSVVEREGLIIACAALYPIADSESGELACLAVNPEYRHGGRGDELLERIENRARALGIKTLFVLTTRTAHWFRERGFEPSSVDRLPSARASLYNFQRNSKIFEKAI,not soluble
11,MRDERLSKIISMFQAHIRGYLIRKAYKKLQDQRIGLSVIQRNIRKWLVLRNWQWWKLYSKVKPLL,soluble
12,MRDIGGSMSSASTSATIVKRSPPNDTSTSSGVSCDVSPNSMTSPSSGSDQNQNNNSLNKCKCCPYGYHIDLGFVSYAQNVSNGFVSRQGTPTNMTLRGNGADRHLMSPLLDNSIFSDSLDNLMSDFDDVLAPHKEVEKKKTVQDIRSRMQGGYNSDYTTYRRGPPEIPRRAHFEQAKPPPLSRPINLGFSGSRSNTPTQRFNAPNGTGNGYSTALAKTISEIRARNAESPFPDSRVGTPIDLGLHQQNNGHVTPSRFANNRYDDLPPTPTPTFRRAPSQGDLPRGFSTAPSTGPGDFASLRRGREFALPPEQEHHSRRFFSASPKLPRRGLQAGPSIDVESHFTYAQTQNGQKVLARTQSTSTSPPPQAPASAFEPVKPLSNGSPSPTHQVQKPIVTRSIAVSTGPLPAPKPCGECAGLRKELFLAVEKIPPPPPESCHVSTSTVLLEFADQSVGSEPIKHCHVALGTEPTSTREVGTVPVTVRSLHIDTQTDPAASTVDAACSPVLFETQEEAVKVTVAASSSAAAADCEECLKRQDVFTRNVGVGACSISDKICVSCDNQVVEADENEAPGFKTDTKDDQKQRDFEIAKANAVKKLLTNEQKSNFQRGTAVSKSARYDRKRSVDDLDYIVDKKNATSPATSSQEAPPTVPDASESPLTTKVVLKKEVFIEPPKQMLPDPIPARIPRPKISKWAVTSEEEAAETPDEQEEAQDRLTPLRSDMRQLGNRWNRNQVTTASNTTPHLPYSGATSQEDVSDSDAESDCSAHSDATFEVNDDVFDAAPFEVSDRLREALENFNSSILEPGSVAEETVEWSAKLVRHVWMTTAGNSSSRYENVDRFVAELGNLGPQILHMVVNFCDQNGNTALHYAVSHANFAVVSSILDSGECDLDAPNRAGYTAVMLAALSQLDDDMEKAVVHRLFQMGNVNAKASQHGQTALMLAVSHGKKTTTELLLACGANVNEQDQDGSTALMCAAEHGHKELVKMLLAENLVNASLTDVDNSTALSIALENDHREIGVMIYAYLNYGRLDISGPTSTI,not soluble
13,MRDRTCVVPGCGATRGLHAHHIRHWQDGGATELANLVLVCPYHHRAHHRGLITITLEHHHHHH,not soluble
14,MREELIEKIKKAGVVGAGGAGFPTHVKVNSKARTVLVNGAECEPLLRVDQQLMAGQASKVVMGLELVMSVTGAKEGIISLKHKYHDAISALEKEISGKPIRIHILDDFYPAGDEHVTVYESTGRLVPQGSIPLKVDCVVHNVETLLNTVDAVADQPVTDTYLTITGEVNQPLTLRLPIGTAISEALAMAGYHDSGGMQVIEGGPMMGKIVADLHQPITKTTKGLIVLPREHPLLRLKTLPADKVLRQSRVSCVQCRFCTDLCPRYLLGHQLEPHKIMRMVNYGQGQEETMKMAFACSECGVCEQYACIMGLSPRAVNALLKKELTRLGIKPSPSPADQAVDPLQPHRKIPVKRLISRLALQDYDRNAPLQERDYPIDRVAIKLCQHVGAPSVPTVKAGQKVKKGDPIASPPAKGLGSYLHASIDGVVQEITDSILISARKGSETQPWNPSV,not soluble
15,MRELVVIFGLSGSGKSFLASILHEKCGYEWLRSDVIRKQLAGLKPEESAKADYGKGIYTKEITKKVYEEMVKRAKELIDRGKKVVLDATFIKRWQRELVLKNFKDPFFILAFAPEEVIKERLKSRKDVSDADWNIYLKQKEEFEAPEEIDYCVINTNKSKEELESRLKKLLGCQLK,not soluble
16,MRERGVAFFSGGKDGLYALYLAEKEGIEVPYLLTLKTSIGLSPHWENLSSLKALAENMGKKLLTFDMKYGSKALAEFISSLDVDYIIAGDVFLEDHLKWINLLAEKAGIKSFEPLWGKNTLELAKEMLNAGFKYSIIAVDKNKLEKTWLGYTFSSTRDIEIFIYENPTIDPLGEGGEFHTITLSSPLFKDEFTLEKISVEESERYWWMRFRVVGNDIKNVRVKGHNSRKDGLEHHHHHH,soluble
17,MREVISIHVGQAGVQIGNACWELYCLEHGIQPDGTMPSDQQADGESFTTFFSDTGNGRYVPRSIFVDLEPTVVDEIRTGTYKKLFHPEQMITGKEDAANNYARGHYTVGKELIDTVLDRIRRLADNCSGLQGFFVFHSFGGGTGSGFTSLLMERLSVDYGKKSKLEFSIYPAPQVSTAVVEPYNSILTTHTTLEHSDCAFMVDNEAIYDICRRNLSVDRPSYTNLNRIISQVVSSITASLRFDGALNVDLNEFQTNLVPYPRIHFPLAAYTPLISADKAYHEALSVNDITNSCFEPANQMVKCDPRHGKYMAVCLLYRGDVVPKDVNTAIAAIKTKRTIQFVDWCPTGFKVGINYQPPTVVPGGDLAKVPRAVCMLSNTTAIAEAWSRLDYKFDLMYAKRAFVHWYVGEGMEEGEFTEAREDLAALEKDYEEVGADSNEGGNEEEGEEY,not soluble
18,MRFLSLLCPPVERAAVMRPPYTTHLQRVPLMRKSLLALSLLAATSAPVLAADYSDGDIHKNDYKWMQFNLMGAFDELPGKSSHDYLEMEFGGRSGIFDLYGYVDVFNLATNKSSDKVGDPKIFMKFAPRMSLDAFTGVDMSFGPVQEVYVASLFEWDGTDFKTNAFSVNNQKIGLGSDVMVPWFGKVGLNLYGTYDGNRKDWNGFQISTNWFKPFYFFENGSFISYQGYIDYQFGLKDEYSTASNGGAMFNGIYWHSDRFAVGYGLKGYKDVYGIKDTDGFKSTGFGHYVAVTYKF,not soluble
19,MRFSNDHPFNQMRLKLTTELLLDLGSLKPEHIITPRIATDEELSLIHSYDYIQAIRRASHGILNLQEAKKYGLDGDDTLQFRRMHQHSARIVGGALNLADAIMDKSVKNGCHLGGGLHHSLPGRANGFCIYNDVAITIAYLIKHYNQRVLCIDTDAHHGDGTQWSFYTEDQALIYSIHETGKFLFPGSGHYTERGNEQGFGYTVNIPLEPYTEDSSYLEVFKQTIEPIIASFKPDIIVSVHGVDVHYLDPLTHMSCTLNTLYQIPYIIKSLADTYTNGKVMMFGGGGYNIWKVVPRAWSHVFLALIEAPPPLEHHHHHH,soluble
